Results: paper PMC3617563

Tests used:
[1] = target: K48-linked IQF (internally quenched fluorescence) diubiquitin substrate DiUb48-6 (UniProt P0CG48); experiment: other fluorescence titration
[2] = target: K48-linked IQF (internally quenched fluorescence) diubiquitin substrate DiUb48-6 (UniProt P0CG48); experiment: stopped-flow fluorescence

Kd [1]: 270 nM
K1 (association constant of the first step) [2]: 2.33 µM⁻¹
K2 (equilibrium constant of the second step) [2]: 0.59
Kd from a fit to a single exponential function [2]: 2420 nM
k1 (first step, association) [2]: 140000 M⁻¹ s⁻¹
k−1 (first step, dissociation) [2]: 0.06 s⁻¹
maximum of kobs,2 [2]: 0.57 s⁻¹
y-intercept of the linear regression of kobs,1 [2]: 0.63 s⁻¹
B1: C276A USP2 catalytic core (inactive active-site mutant) (domain or fragment)
chain: NSKSAQGLAGLRNLGNTAFMNSILQCLSNTRELRDYCLQRLYMRDLHHGSNAHTALVEEFAKLIQTIWTSSPNDVVSPSEFKTQIQRYAPRFVGYNQQDAQEFLRFLLDGLHNEVNRVTLRPKSNPENLDHLPDDEKGRQMWRKYLEREDSRIGDLFVGQLKSSLTCTDCGYCSTVFDPFWDLSLPIAKRGYPEVTLMDCMRLFTKEDVLDGDEKPTCCRCRGRKRCIKKFSIQRFPKILVLHLKRFSESRIRTSKLTTFVNFPLRDLDLREFASENTNHAVYNLYAVSNHSGTTMGGHYTAYCRSPGTGEWHTFNDSSVTPMSSSQVRTSDAYLLFYELASPPSRM
